Assay results published in the DeepSol protein solubility set.

test: soluble on expression in E. coli; label from the status in PepcDB or PDB records

Soluble on expression in E. coli, not soluble:
MGSDKIHHHHHHMKICLVSSMHPPHDKRVFDKEAVTLSSNGYKVLHLCPGTASDSGVFNDVEIVPYCRPSGIKGRLLQIFQLYRMANKINADVYHCNEVDSWFVGVLLKILRKKLCVFDVHEHYPSTFAESRFPKWIQPAVSSLVKLIFRLFLPFTDRLVLAKKSVSDDFPNSDSKKVLVRNFTPLSGINFTGVREVVPKGSDVTLIHLGLFGKIRGWPQTLEALKTMKQKNVRLVVIGDFNDGSRADFDSVVSAYGLNDRVVVYDWMPFEDAFKHLMQAHIGLVVFQPGILNHVYAMPHKMFDYMAAGMAVICPEFAMEVAPFVKEAKCGLLVDTANPADLAKKLDELVSSPDLIHEMGVRAQKAVQQHYNWEAEAKHLIQMYKELEELQ, MGSDKIHHHHHHMKIGFLGFGKSNRSLLKYLLNHQEAKFFVSEAKTLDGETKKFLEEHSVEYEEGGHTEKLLDCDVVYVSPGIKPDTSMIELLSSRGVKLSTELQFFLDNVDPKKVVGITGTDGKSTATALMYHVLSGRGFKTFLGGNFGTPAVEALEGEYDYYVLEMSSFQLFWSERPYLSNFLVLNISEDHLDWHSSFKEYVDSKLKPAFLQTEGDLFVYNKHIERLRNLEGVRSRKIPFWTDENFATEKELIVRGKKYTLPGNYPYQMRENILAVSVLYMEMFNELESFLELLRDFKPLPHRMEYLGQIDGRHFYNDSKATSTHAVLGALSNFDKVVLIMCGIGKKENYSLFVEKASPKLKHLIMFGEISKELAPFVGKIPHSIVENMEEAFEKAMEVSEKGDVILLSPGGASFDMYENYAKRGEHFREIFKRHGGDEV, MGSDKIHHHHHHMKIKVALLDKDKEYLDRLTGVFNTKYADKLEVYSFTDEKNAIESVKEYRIDVLIAEEDFNIDKSEFKRNCGLAYFTGTPGIELIKDEIAICKYQRVDVIFKQILGVYSDMAANVATISGENDKSSVVIFTSPCGGVGTSTVAAACAIAHANMGKKVFYLNIEQCGTTDVFFQAEGNATMSDVIYSLKSRKANLLLKLESCIKQSQEGVSYFSSTKVALDILEISYADIDTLIGNIQGMDNYDEIIVDLPFSLEIEKLKLLSKAWRIIVVNDGSQLSNYKFMRAYESVVLLEQNDDINIIRNMNMIYNKFSNKNSEMLSNISIKTIGGAPRYEHATVRQIIEALTKMEFFEEILQ, MGSDKIHHHHHHMKIKVKLPDGKEKEYDRGITPAEIAKELGIKKAIGAVVNGELWDLKRPIENDCELRLVTLEDPEAPEFYRHTMAHILAQAVMRLYGKENVKLGIGPTIENGFYYDFDIKNGRLTEEDLPKIEQEMKKIIKENLPIERKEISKEEARELFRDQPYKLELIEEIEGNRVTIYRQGEFVDLCRGPHLPSTGIVKHFKLLSVSGAYWRGSEKNPMLTRVYGTAFAKKEDLDNYLKFLEEAQRRDHRKLGPQLELFMLNTEYAPGMPFFLPKGVVVLNELMKFSRELHRERGYQEIFTPLIMNEQLWKISGHWDHYAENMYFIEKDEERYAVKPMNCPGHILVYKSRTVSYRDLPLRFFEFGRVHRYERSGVLHGLMRVRSFTQDDAHIFCTPDQIEEEILGVLDLINTIYSQFGFTYRVELSTMPEDHMGDEAIWEKATTALKNALERAGLSYKVNEGEGAFYGPKIDFHIRDSIGREWQCATIQLDFMMPEKFNVTYIGPDNKEHRAVMIHRAIYGSLERFFGILIEHFAGAFPTWLAPIQVAVIPISEKHNDGAEKVARRISQEGFRVFFDNRRETLGYRIRQAQTQKIPYMIIIGDKELESGKISVRTRTGKEIKDVDPEHFVETLRNEVLSRKLELSMEG, MGSDKIHHHHHHMKILKHSLFTSVVNKMRLIHHQDDTAKLSLLITGMSGTGKSTLVDWYEQQYPVEYTPEVTLKRVICVHLTKPNSPINLLEQIINAMGTSYIPRRRTLNKLLHQLKCLLEACQTELIILDEAQECLPDSDGIKAQSMAKAFVAIIDKCNVPLILIGTPALKRLLKLKYLADVKNISREEQLSRRFIAPCQLNIFLSHCDAWVNVINFFGKTKGLRNLNTKDADILDRLYVATYGRIGLIKKLFAFTQLNETSDLQATFYDAYELVDTTGEANPFNQQDYTYAAIIKKAENIERIYFTHNKTHPSEKRVADRLFH, MGSDKIHHHHHHMKILPVISTKGGEGKSTQAANLAGFFADAGLKTLLIDGDYSQPTASSIYALEHEAPFGLFELLMQTTDLNQPESIISRTAIPNLDLIISNDPDDRLPTAMLHAPDGRMRLKNILQHQSFQSYDVIMIDSKGAAGVMVELVVLAATENVVGVIKPILPDVREFMRGTVRLMSRLLALQAYGIQIPDIKILANCVENTSLDRKTLEELGNIVSEKKYLQSESINISILETKIDQLEVYKRGHAFGQPVHRLEYVTDRKSAAAAVTMHSLACELFPHWKDKFDSVLRNQTGAGEVASV, MGSDKIHHHHHHMKILVGSPVSLEEFETIDLFISWLDVIPDNARFSIVGTSKFFIIGKNGREWKKGYEFGIVDADINIFVVGGDLALYPEVFYIAKENGAKLVVGFCEIQNFIDFNFVKAKFWAHTQETSLASIVLLNFLGKVHNNIYFPLEKTKNQTGVVAEGVAPVFLELKKNFFSSEEAEDV, MGSDKIHHHHHHMKKIQIVDDSQSNIRKLENLLNTHFLVTVARTGEEAVRMAKENVPDLILLEVALPDMDGFETCRRLKAQVESAKIPVIFVSSLKEKEAVIKGFEVGGQDYIIKPFEARELVLRMKSLLKQESSRKRLEQHVKVLEEQNEKLKGKIQKVDRLSRVDFLTNLMNRRDMQEKIRAEINRSIRHGRSFTLAIVDIDFFKNINDTYGHDCGDHVLKHFVSTLKNSVRSSDYVSRWGGEEFLLLFPETKLEEGKRACEKIRQKINESPVIYKGMSISITATFGISEYRPSVRIEELIKAADDALYKGKKTGKNQVVVQSM, MGSDKIHHHHHHMKKIRFAAIGLAHNHIYDMCQQLIDAGAELAGVFESDSDNRAKFTSLFPSVPFAASAEQLITDASIDLIACAVIPCDRAELALRTLDAGKDFFTAKPPLTTLEQLDAVQRRVAETGRKFAVYFNERINVDSALFAGELVQRGEIGRVIQTMGVGPHRERGARPDWFYQKRQYGGILCDIGIHQIEQFLYFTGNTNARVVTSQTANYHHPHHPEFEDFGDAMLLGDNGATGYFRCDWFTPDGLSVWGDGRLTILGTEGYIEIRKYVDLTRGESNVVYLVNGKGEQRFTPAGSVERAFFPDFLRDCRERTENAMSQSHIFKATELSILAQQAANKIA, MGSDKIHHHHHHMKKKLKIGISACVMGEPVRFDRGHKKSGFCMEQLAEFAEFKPVCPEMAIGLPVPRPTIRQIVRDNIITVSRPDGSGDVTQALKEFGAKAALNYQELAGFVFCAKSPSCGMERVKVYHHHGKGSESTGVGIFAEQVMKANPLLPCEENGRLNDPIIRENFTTRIFTYQKWLDLKAEGLTRHKLIQFHSAHKYLVMSHHVESYRELGRLLGRADIGLEEQSERYISGLMQALKHKASRRSHTNTLQHLQGYFKRQLDEHKRRELTQEIAAYREGLSPLLVPLTLIKHYLIEFPNEYLLQQAYLNPHPKELRLRYGY, MGSDKIHHHHHHMKKQFEMYFSLGTLIGYMHDNKLIATGGVFPFKDSFSTIGMLIVHPNFQGQGIGRTLLNHCLAHTHPKQPIALIATKAGEPLYTSCGFQTVTTIHRFEKQTTKTHITHTQQVKEKDIISLISLDQSTTGADRSLLYSLLLPRTSHSFKIERHNCIEAFSLCIQKGNILCINPLIAKREEDAIQLLQKICECWNGTVRLDVPHSQFSFRKLLQTENFQETLLSPLMIKNGSQLPGNRNMLFAMIDTALC, MGSDKIHHHHHHMKLIAVGDNVVDYYQDQETFYPGGNALNVAVLAKRLGHESSYIGIVGNDEAAAHLLNVLKLEQVNADYIRQAHGENGMAIVTLDEQGDRIFVRSNKGGIQSRLRLAFQEKDVSFISGHDLLHTSVYSRLENDLPQLCGLVPVSFDFSTNREDDYLRRVCPYVTYAFFSGSDLSESECGELAKTAHGYGAKMVCMTRGGQGAILSAGDRVYHQPIVEADIIDTLGAGDSFIAGFLTAFCVKQDITYALRQAAETAAKTCGVYGAFGYGYPYRLEDGGSSEKTRIL, MGSDKIHHHHHHMKLLHIERHTTCLNYVSDYNICFIHQRLFSGGDFKIDNHHHSCILFLLKGEILTSCSEFHDQHIVEGHMVLFPQNDPNQSKSMTETEFILLFFDNQVNLHNKMSIELSAIHLESEKSCFYSLSICPPLRHVLDSICFYLKQKVQCSHMHELKQKEIFMVFGTFYNRTDMAHFLMPITGRDPNFKSFVLENYLQIRNIKQFAQLYHCSERSFNRKFKSCFHDTPYNWILNQKTRHIKGQLANRNIPISEIARTFHFASPSHFTTYCKKRLGITPSEFREKIAK, MGSDKIHHHHHHMKLMIGKLFWDTGASMPCYPSLENDMICDMLVVGSGEAGAQIAYSLVKMGMRVTLIEKNMISCGSTAANTGLLQFLHDKSLTSLIHTFGEEKGVRAYKLCYEALRTMEKVVPTLDIDPQFIPRNSLYYASKSEDVSFLQEEYKTLQNYEFPVEYFTASDIKERYPFTRQAALYTHGDAEVNPYLLAHSLLHKANQMGANIYEHTEAIHIKKRQNDLICYTKTGNQIVAKNIIMATGYEALFGKKEKNTTVETSYAVVTNKVDSFEGWHEQSLIWETARPYLYFRTYENRIIVGGLDEAMKIQTIGDTKLLHKRDVLINIIKEMFPQYKDIQAEYYWAAAFGGSHDGLPILKEDNKIHNLFYALPYGGNGTVYGMVFAKIFEQLFTNKESEDFSLFNR, MGSDKIHHHHHHMKLPTNSILISLKIGIVSDGQYGERAFEQIRRRFPTEWILLPYPSSPVVDEIELTIPPCDLYISYLRHPDIAMELIRTGIPALLGINLGPGFIAQAHEFNPAVIGPETMCSVLPNTKFCQVNEYAKVFGRPVFYLVMDGDRIVWCKTIRGSPCGSTDAAASEISGQILDQEALSRFALSICHNCRAPRFGKTCDKEKAGIIHLEELMRALKGVNPKKWEELIQVLEKIGCSFPNE, MGSDKIHHHHHHMKLSGWGRFPNVDCTVRVARSEVDVRAAVAASPLIARGNGRAYGDAALNRGLTLDMTGMDRMLSFEDGVLVAEAGVLLGDIIHTFLPRGWFPMVTPGTKYVSLGGAIAADVHGKNHHLDGSFRSCVDWVDLMGPDGAVTRVTREDDLFDWTLGGMGLTGVILRAQIRLRAVETSFIAQETRALTSLTDTLEAFEDTLDALYSVAWIDCSDGPHHGHSLLLLGRHATPGDLPKRQKPLEVKRRAKLPVPFGAPPFLFRGLWLRALNGIYWRRGAKRAGHTIVDWDSYFYPLDALANWNRLYGRNGFLQFQCALPLETAADGLAALMAEIAASQSGSVLSVLKRFGPQSGHFSFPMPGYTLALDFPANERSLALMERLDAITLAHKGRFYLAKDARMPEAVVKADARAEAFAAMRTQMGLRDRFASEQSERLGL, MGSDKIHHHHHHMKLSMPRFDQAPVLVVGDVMLDRYWHGGTSRISPEAPVPVVKVDQIEDRPGGAANVALNIAALGAPASLVGVTGDDEAAESLTNSLKAAGVVARFQRIADQPTIVKLRVMSRHQQLLRIDFEEPFNTDPLALSAEVYSLLDGIKVLVLSDYGKGALKNHQALIQAARKRGIPVLADPKGKDFAIYRGASLITPNLSEFEAIVGHCEDEAQLVTKGAQLMQELDLGALLVTRGEHGMTLLRPDQQALHLPARAREVFDVTGAGDTVISTLAAAIAAGEELPHAVALANLAAGIVVGKLGTAAISAPELRRAIQREEGSERGVLGLEQLLLAVDDARAHKEKIVFTNGCFDILHAGHVTYLEQARAQGDRLIVAVNDDASVSRLKGPGRPINSVDRRMAVLAGLGAVDWVISFPEGTPENLLTHVKPDVLVKGGDYGIDQVVGADIVQAYGGEVRVLGLVENSSTTAIVEKIRGQG
